Experimental data from paper PMC2841545 (Protein Engineering, Design and Selection, 2010).

Target: ABL1 SH2 domain (Homo sapiens (clone BC059260 maps to …, UniProt P00519))
Assay: ELISA

Chain of ABL1 SH2 domain (Homo sapiens (P00519 whole entry, looked up, the tested form may be a part): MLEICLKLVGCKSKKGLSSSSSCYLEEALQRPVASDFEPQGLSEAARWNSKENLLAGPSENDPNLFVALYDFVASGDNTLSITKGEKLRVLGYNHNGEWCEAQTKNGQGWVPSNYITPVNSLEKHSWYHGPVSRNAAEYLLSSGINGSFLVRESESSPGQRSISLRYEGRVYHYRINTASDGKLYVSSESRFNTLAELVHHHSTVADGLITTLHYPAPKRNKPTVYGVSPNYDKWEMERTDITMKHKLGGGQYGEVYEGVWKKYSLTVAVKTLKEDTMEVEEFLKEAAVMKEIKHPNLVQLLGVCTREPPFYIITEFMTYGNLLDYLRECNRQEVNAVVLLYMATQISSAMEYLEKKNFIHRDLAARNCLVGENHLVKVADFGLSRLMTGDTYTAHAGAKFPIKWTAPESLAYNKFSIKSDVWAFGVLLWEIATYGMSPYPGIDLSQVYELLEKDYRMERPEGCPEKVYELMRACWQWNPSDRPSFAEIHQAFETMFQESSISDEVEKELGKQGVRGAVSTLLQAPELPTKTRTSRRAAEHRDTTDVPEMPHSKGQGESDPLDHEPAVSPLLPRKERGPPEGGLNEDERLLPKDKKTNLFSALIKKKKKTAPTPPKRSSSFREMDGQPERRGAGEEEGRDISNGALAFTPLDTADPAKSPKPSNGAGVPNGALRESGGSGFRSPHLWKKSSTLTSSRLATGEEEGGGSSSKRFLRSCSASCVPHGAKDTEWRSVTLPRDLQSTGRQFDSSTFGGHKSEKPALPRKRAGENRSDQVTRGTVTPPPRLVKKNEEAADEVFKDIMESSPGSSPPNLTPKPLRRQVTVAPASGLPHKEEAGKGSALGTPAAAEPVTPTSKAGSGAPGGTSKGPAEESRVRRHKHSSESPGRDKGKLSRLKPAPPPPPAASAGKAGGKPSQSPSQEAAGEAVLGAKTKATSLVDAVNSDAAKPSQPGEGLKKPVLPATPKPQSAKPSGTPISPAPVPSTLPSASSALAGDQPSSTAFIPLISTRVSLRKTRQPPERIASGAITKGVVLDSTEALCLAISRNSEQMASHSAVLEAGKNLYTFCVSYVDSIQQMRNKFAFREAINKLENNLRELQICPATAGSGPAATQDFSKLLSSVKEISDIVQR

binding result | Binder
binds | scFv 43H02 (Group ai, selected on ABL1) (scFv, V domains shown) VH: EVQLLESGGGLVKPGGSLRLSCAASGFTFDDYAMHWVRQAPGKGLEWVSGISWNSGSIGYADSVKGRFTISRDNAKNSLYLQMNSLRAEDTALYYCAKGGPGIRYPDAFDIWGQGTLVTVSS VL: not shown
binds | scFv 43_E02 (Group aiii, selected on ABL1) (scFv, V domains shown) VH: EVQLLESGGGLVQPGRSLRLSCAASGFTFDDYAMHWVRQAPGKGLEWVSGISWNSGSIGYADSVKGRFTISRDNAKNSLYLQMNSLRAEDTALYYCAKGGPGIRYPDAFDIWGQGTMVTVSS VL: DIQMTQSPSSLSASVGDRVTITCRASQSIRNDLGWYQQKPGKAPKLLIYAASSLQSGVPSRFSGSGSGTDFTLTISSLQPEDFATYYCQQSSSTPITFGGGTKVEIK
